Drawing on patent US20090304724A1 (IPSEN PHARMA S A S, published 2009), this text covers Ki for 15 molecules.

The first assay deals with human growth hormone secretagogue receptor (human) (UniProt Q92847). The assay can be described thus: (125I)ghrelin displacement, hGHS-R CHO-K1 membranes.
Sequence of human growth hormone secretagogue receptor (human) (Q92847 whole entry): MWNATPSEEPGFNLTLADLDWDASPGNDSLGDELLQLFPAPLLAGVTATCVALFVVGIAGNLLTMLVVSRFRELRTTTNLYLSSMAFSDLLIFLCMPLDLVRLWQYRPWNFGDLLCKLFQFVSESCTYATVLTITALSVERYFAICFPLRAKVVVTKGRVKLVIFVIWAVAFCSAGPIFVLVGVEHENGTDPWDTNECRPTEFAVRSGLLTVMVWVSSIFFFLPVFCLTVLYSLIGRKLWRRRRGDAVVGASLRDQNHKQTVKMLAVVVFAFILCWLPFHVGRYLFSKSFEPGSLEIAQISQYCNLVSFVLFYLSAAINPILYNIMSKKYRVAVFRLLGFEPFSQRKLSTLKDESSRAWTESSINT
What is called Ki is the dissociation constant of the complex between target and ligand, obtained from inhibition or displacement. In the case of H-Apc-D-1-Nal-D-Trp-Taz-NH2 (peptide), the Ki amounted to 1.41 nM. In other words, the single-digit nanomolar range.

In turn, “H-Inp-D-2-Nal-D-Trp-Taz-Lys-NH2 (peptide)” yielded a Ki of 0.8 nM. For “H-Apc-D-Bal-D-2-Nal-Phe-Lys-NH2 (peptide)”, the inhibition constant Ki is 0.68 nM.

As to H-Inp-D-2-Nal-D-Trp(Ψ)-Pim (peptide), the Ki was determined as 117 nM.

With H-Inp-D-Bip-D-Trp-Phe-NH2 (peptide), the inhibition constant (Ki) amounted to 20 nM. H-Apc-D-Bal-D-Trp-Phe-Apc-NH2 (peptide) showed a Ki of 0.71 nM. For the molecule H-Apc-D-Bal-D-Trp-Taz-Lys-NH2 (peptide), the Ki turned out to be 0.5 nM. This Ki and that of the molecule before are within 1.5-fold of each other. Still for that read-out and setting: the result for Inp-D-2-Nal-D-Trp-Phe-Lys-NH2 (peptide) reads 0.3 nM; that for H-Inp-D-Bal-D-Trp-Taz-Lys-NH2 (peptide), 0.52 nM; that for H-Inp-D-Bal-D-Trp-Taz-Apc-NH2 (peptide), 0.83 nM.

Turning to “H-Apc-D-Bal-D-Trp-2-Thi-Apc-NH2 (peptide)”, the Ki was determined as 0.51 nM. Against the preceding molecule, the Ki is about 1.6-fold lower. H-Inp-D-Bal-D-Trp-Phe-Lys-NH2 (peptide) showed a Ki of 0.33 nM. The same measure, in the same setting: the result for “H-Inp-D-Bal-D-Trp-2-Thi-Apc-NH2 (peptide)” reads 0.4 nM. The same measure, in the same setting: for H-Apc-D-1-Nal-D-Trp-Phe-NH2 (peptide) the value was 0.7 nM.

In the next assay the target is T1, human growth hormone secretagogue receptor (human, UniProt Q92847 1-366).
T1 construct: whole, on cells; also called hGHS-R; ghrelin receptor
T1 sequence (Q92847 whole entry): as above
Described as above.
Procedure: Membranes for radioligand binding studies can be and were prepared by homogenization of the foregoing CHO-KL cells expressing the human recombinant GHS receptor. The cells were homogenized in 20 ml of ice-cold 50 mM Tris-HCl using a Brinkman Polytron® (Westbury, N.Y.; setting 6, 15 sec). The homogenates were washed twice by centrifugation (39,000 g/10 min) and the final pellets were resuspended in 50 mM Tris-HCl containing 2.5 mM MgCh and 0.1% bovine serum albumin (BSA). […] The filters were then washed three times with 5-ml aliquots of ice-cold 50 mM Tris-HCl and 0.1% BSA, and the bound radioactivity trapped on the filters was counted by gamma spectrometry (Wallac LKB, Gaithersburg, Md.).
GSXFLSPEHQRVQQRKESKKPPAKLQPR (Glu(O-hexyl) 3; C-terminal amide) [(Glu^3(O-hexyl))hGhrelin(1-28)-NH2] yielded an inhibitory constant (Ki) of 0.5 nM. That is a sub-nanomolar value.
